Data on one substance can be found in article PMC6142219.

This experiment concerns the target CBS–CP12 protein (IPF_2164) of Microcystis aeruginosa PCC 7806 (Microcystis aeruginosa PCC 7806). Put plainly: SEC. For orientation: SEC sorts molecules by how far they enter the pores of the column.

For orientation: stoichiometry N means the number of molecules, sites or subunits per partner or assembly. Substance “CBS–CP12 protein (IPF_2164) of Microcystis aeruginosa PCC 7806 (natural protein)” registered a stoichiometry N of 6.
